Reference: patent publication US12709641B2, “Tau binding compounds” (VOYAGER THERAPEUTICS, INC., dated 2026)
Substitutions are numbered along the chain they refer to. No end group written: not given here.

Columns and labels:
[1] = biological target: T1, enriched paired helical filament tau protein (ePHF) (human, phosphorylated residues of pathological tau, sites not stated); experiment: follow up analysis, method not stated
[2] = biological target: T1, enriched paired helical filament tau …; experiment: direct ELISA
Description: (§1) Variable domain nucleic acid sequences from antibodies obtained from immunizations described above were used to prepare recombinant mouse IgG antibodies. These candidate antibodies were analyzed for binding to ePHF and specificity for ePHF over wild type tau by direct ELISA.
(§2) For direct ePHF and wildtype tau ELISA, plates were first coated with ePHF or wild type tau. Antigen solutions were prepared in PBS and 50 μL were pipetted into each well. Plates were covered and incubated for one hour at 37° C. or overnight at 4° C. Plates were then washed and blocked by addition of 150 μl of blocking buffer to each well and incubated one hour at room temperature. Plates were then washed before addition of serially diluted candidate antibody samples prepared in blocking buffer. Detection of candidate antibody binding was carried out by washing plates and adding a solution of enzyme-labeled secondary antibody in blocking buffer to each well. Secondary antibody binding was detected by addition of substrate and spectrophotometric analysis of resulting reaction product.

[3] = biological target: T2, peptides corresponding with residues 413-430 of human tau (human, also: biotin, position not given here, phosphorylated residues, sites not given here); experiment: Pepscan biotinylated peptides, BLI or colorimetric detection
T2 peptide: STGSIDMVDSPQLATLAD
Description: Recombinant mouse IgG antibodies were prepared with clone-specific variable domain pairs selected from those presented in Table 3 and mouse IgG1 constant domains. Epitope analysis was carried out with different anti-tau antibodies using a peptide scanning approach (e.g., see Verelst, J. et al. Front Mol Biosci. 2020 Mar. 31; 7:48). Libraries of overlapping synthetic biotinylated peptides corresponding to phosphorylated human tau (Pepscan, Lelystad, NL) were obtained and used to coat assay plate wells, each with individual library members. Recombinant mouse IgG antibodies were prepared with clone-specific variable domain pairs selected from those presented in Table 3 and mouse IgG1 constant domains. Antibody binding to peptides in each well was analyzed using colorimetric detection of peptide-antibody complexes with labeled secondary antibody or by associating biotinylated peptides with streptavidin coated biosensors in assay wells and assessing antibody binding by bio-layer interferometry (BLI)-based detection.

iPHF = iPHF (Homo sapiens (Human), UniProt P10636-8); experiment: Octet, antibody on biosensor tips
Description: Anti-human tau antibodies were assessed for affinity for iPHF by Octet (ForteBio, Menlo Park, CA) analysis. Recombinant mouse IgG antibodies were prepared with clone-specific variable domain pairs selected from those presented in Table 3 and mouse IgG1 constant domains. Candidate antibodies were immobilized on biosensor tips (ForteBio) in kinetic buffer (ForteBio). Biosensor tips were then washed before introduction of a solution of iPHF in kinetic buffer for analysis of association and dissociation with candidate antibodies. Affinity measurements (K_D) were obtained using Data Analysis HT version 11.1 and corrected for background and high-frequency noise.

wild type tau = wild type tau (Homo sapiens (Human), UniProt P10636-8); experiment: direct ELISA
Description: as §1, §2

B1: V0022 (antibody, V domains shown)
VH: QVQLQQPGTELVKPGSSVNLSCKASGFTFTRYWMHWVKERPGHGLEWIGNINPNNGGTDFNEKFKNKATLTVHKSSTTVFIQLSSLTSEDSAVYYCARGTGTGAMDYWGQGTSVTVSS
VL: DVVMTQTPLSLPVSLGDQASISCRSSQSLVHNNGITYLYWYLQKPGQSPKLLIYRVSNRFSGVPDRFGGSGSGTDFTLKISRVEAEDLGVYFCFQGTHVPRTFGGGTKLEIK
[1]
  selectivity for ePHF over wild type tau: > 100 fold
[2]
  EC50: 70 pM
[3]
  Kd: 306 pM
iPHF
  Kd: 300 pM

B2: V0024 (antibody, V domains shown)
VH: QVQLQQPGTELVKPGASVKLSCKASGYTFTRFWMHWVKQRPGQGLEWIGNINPNNGGTDNNERFKSKATLTVDRSSSTAYMQLSSLTSEDSAVYYCARGTGTGAMDYWGQGTSVTVSS
VL: B1 VL with N32S, I35N, Y37H, N58S, G68S
[3]
  Kd: 225 pM

B3: V0023 (antibody, V domains shown)
VH: B2 VH with R31I, Q43H, N50K, T58G, N60Y, R63K, R74K, S77T, M81L
VL: B1 VL with Q18H, N32S, Y37H, K44R, S48T, G68S, R82S, K112E
[1]
  selectivity for ePHF over wild type tau: > 100 fold
[2]
  EC50: 110 pM
[3]
  Kd: 207 pM
iPHF
  Kd: 4000 pM

B4: V0009 (antibody, V domains shown)
VH: EVQLVESGGALVQPGGSLSLSCAASGFTFTDYYMSWVRQPPGKALEWLALIRNKAKGFTTEYSASVKGRFTISRDNSQSILLFQMNDLRADDSATYYCVRDINYWGQGTTLTVSS
VL: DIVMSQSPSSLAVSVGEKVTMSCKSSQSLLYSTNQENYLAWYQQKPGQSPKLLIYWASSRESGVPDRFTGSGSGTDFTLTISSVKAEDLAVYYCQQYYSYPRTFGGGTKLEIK
[1]
  selectivity for ePHF over wild type tau: > 100 fold
[2]
  EC50: 38 pM
iPHF
  Kd: 200 pM

B5: V0026 (antibody, V domains shown)
VH: QVQLQQSGPELVKPGASVKISCKASGYSFTDYYINWVKQRPGQGLEWIGWIFPGSDSTYYNEKFKGKATLTVDKSSSTASMLLSSLTSEDSAVYFCARPTVVARDYAMDYWGQGTSVTVSS
VL: DVLMTQTPLSLPVSLGDQASISCRSSQSIVYSNGNTYLEWYLQKPGQSPKLLIYKVSNRFSGVPDRFSGSGSGTDFTLKISRVEAEDLGVYYCFQGSHVPYTFGGGTKLEIK
[2]
  EC50: 5610 pM
iPHF
  Kd: 700 pM

B6: V0031 (antibody, V domains shown)
VH: QVQLQQPGTELVKPGASVKLSCKASGYTFTSYWMHWVKQRPGQGLEWIGNIYPSNGGTYYNEKFKSKATLTVDKSSSTAYMQLSSLTSEDSAVYYCARSSVVGRDYAMDYWGQGTSVTVSS
VL: B5 VL with S22A, Y31H, K50E
[2]
  EC50: 8800 pM
iPHF
  Kd: 57700 pM

B7: V0032 (antibody, V domains shown)
VH: QVQLKQSGAELVRPGASVKLSCKTSGYTFTDYYIKWVKQRPGQGLEWIARIYPGSGNTYYNEKFKGKATLTAEKSSSTAYMQLSSLTSEDSAVYFCARPAYYSKDYAMEYWGQGTSVTVSS
VL: B5 VL with S32T
[2]
  EC50: 14300 pM
iPHF
  Kd: 17500 pM

B8: V0027 (antibody, V domains shown)
VH: B5 VH with S28T, D31E, I34L, V37M, S55R, D56G, Y59N, S80Y, V101I
VL: B5 VL with Y31H, S32R, Y101F, G105S
[2]
  EC50: 3510 pM
iPHF
  Kd: 10500 pM

B9: V0058 (antibody, V domains shown)
VH: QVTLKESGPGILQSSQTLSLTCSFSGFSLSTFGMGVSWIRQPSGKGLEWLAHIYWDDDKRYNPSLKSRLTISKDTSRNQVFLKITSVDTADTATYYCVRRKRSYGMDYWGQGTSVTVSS
VL: DIVMTQSPSSLSVSAGEKVTMSCKSSQSLLSSGNQKNYLAWYQQKPGQPPKLLIYGASTRESGVPDRFTGSGSGTDFTLTISSVQAEDLAVYYCQNDHSHPYTFGGGTKLEIK
[2]
  EC50: 2450 pM
iPHF
  Kd: 1000 pM

B10: V0057 (antibody, V domains shown)
VH: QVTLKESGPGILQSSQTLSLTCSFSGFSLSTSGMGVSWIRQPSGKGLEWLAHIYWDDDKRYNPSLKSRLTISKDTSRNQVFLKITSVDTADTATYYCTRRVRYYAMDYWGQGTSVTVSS
VL: B9 VL with S31N
iPHF
  Kd: 17400 pM

B11: V0054 (antibody, V domains shown)
VH: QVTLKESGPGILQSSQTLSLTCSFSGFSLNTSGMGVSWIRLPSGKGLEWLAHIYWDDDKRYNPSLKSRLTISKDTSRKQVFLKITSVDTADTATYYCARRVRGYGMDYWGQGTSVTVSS
VL: B9 VL with S31N, A57T
iPHF
  Kd: 105000 pM

B12: V0050 (antibody, V domains shown)
VH: EVQLQQSGPELVKPGASVKIPCRASGYTFTDYNMDWVKQSHGKTLEWIGDINPNNGGTIYNQKFKGKATLTVDKSSSTAYMELRSLTSEDTAVYYCARGRGMGYYALDYWGQGTSVTVSS
VL: DIQMTQSPASLSASVGETVTFTCGASENVYGALNWYQRKQGKSPQLLIYGATNLADGMSSRFSGSGSGRQYSLKISSLHPDDVATYYCQNVLTIPWTFGGGAKLEIK
[2]
  EC50: 18000 pM
iPHF
  Kd: 400 pM

B13: V0020 (antibody, V domains shown)
VH: QVQLQQPGTDLVKPGASVKLSCKASGYTFTSYWMHWLKQRPGQGLEWIGNINPNNSDANYNEKFKSKATLTVDKSSSAAYMQLISLTSEDSAVYYCARANYYGGSQFAYWGQGTLVTVSA
VL: DVVVTQTPLSLPVSLGDQASISCRSSQSLVHSNGKTYLHWYLQKPGQSPNLLIYKVSNRFSGVPDRFSGSGSGTDFTLKISRVEAEDLGVYFCSQSTHVPFTFGSGTKLEIK
[2]
  EC50: 351 pM
iPHF
  Kd: 32700 pM

B14: V0021 (antibody, V domains shown)
VH: B13 VH with T9I, D10E, P14T, Y32N, D57E, A58T, K65R, S66K
VL: B13 VL with V4M, P12C
[2]
  EC50: 571 pM
iPHF
  Kd: 15100 pM

B15: V0033 (antibody, V domains shown)
VH: EVQLQQSGAELVRPGSSVKMSCKTSGYTFTSYGINWVKQRPGQGLEWIGYIYIGNGHTEYNEKFEGKATLTSDTSSSTAYMQLSSLTSEDSAIYFCAGTGTLFDYWGQGTTLTVSS
VL: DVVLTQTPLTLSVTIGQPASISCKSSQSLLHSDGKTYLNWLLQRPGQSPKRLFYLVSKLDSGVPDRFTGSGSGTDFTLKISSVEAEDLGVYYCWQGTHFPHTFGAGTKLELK
Wild type tau
  EC50: 342 pM

B16: V00018 (antibody, V domains shown)
VH: QVQLQQPGADLVRPGSSVKLSCKASGYTFTRSWMHWVKQRPIEGLEWIGNIDPSDSEAHYNQKFKDKATLTVDKFSNTAYMQLSSLTSEDSAVYYCARWDDFYVAYWGQGTLVTVSA
VL: DIVLTQSPASLAVSLGQRATISCRASKSVSTSGYSYIHWYQQKPGQPPKLLIYLASNLESGVPARFSGSGSGTDFTLNIHPVEEEDAATYYCQHSRELPWTFGGGTKLEIK
Wild type tau
  EC50: 238 pM
[2]
  EC50: 718 pM

B17: V00019 (antibody, V domains shown)
VH: B16 VH with D10A, R31S, E43Q, S56G, A58T, F75S, F102Y
VL: B16 VL with I37M, Q93L
Wild type tau
  EC50: 285 pM

B18: V00016 (antibody, V domains shown)
VH: EVQLQQSGAELVKPGASVKLSCTASGFNIKDYYIHWVKQRTEQGLEWIGRIDPEDGETKYAPKFQGKATIAADTSSNTAYLHLNSLTSEDTAVYYCAREFSYAMDYWGQGTSVTVSS
VL: NIMMTQSPSSLAVSAGEKVTMSCKSSQSVLYSSNQKNYLAWYQQKPGQSPKLLIYWASTRESGVPDRFTGSGSGTDFTLTISSVQAEDLAVYYCHQYLSSRTFGGGTKLEIK
Wild type tau
  EC50: 141 pM

B19: V0035 (antibody, V domains shown)
VH: EAQLQQSGAELVRPGSSVKMSCKTSGYTFTSYGINWVKQRPGQGLEWIGYIYIRNGNTAYNEKFKGKATVTSDTSSSTVYMQLSSLTSEDSAIYFCAGTGTSFTYWGQGTLVTVSA
VL: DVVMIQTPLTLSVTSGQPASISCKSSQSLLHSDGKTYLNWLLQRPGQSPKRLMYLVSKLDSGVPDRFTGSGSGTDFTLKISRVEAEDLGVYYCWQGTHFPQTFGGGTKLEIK
Wild type tau
  EC50: 169 pM
[2]
  EC50: 315 pM

B20: V0034 (antibody, V domains shown)
VH: B19 VH with A2V, I48V, N55D, T104A
VL: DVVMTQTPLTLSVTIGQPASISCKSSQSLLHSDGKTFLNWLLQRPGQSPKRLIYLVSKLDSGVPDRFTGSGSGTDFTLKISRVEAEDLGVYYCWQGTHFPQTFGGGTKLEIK
Wild type tau
  EC50: 140 pM
[2]
  EC50: 351 pM

B21: V0004 (antibody, V domains shown)
VH: QVQLQQPGAELVKPGASVKLSCKASDYTFTNYWMHWVKQRPGRGLEWIGRIDPNSGGTRYNEKFKNKATLTVDKPSSTAYMHLSSLTSEDSAVYYCAGDFDVWGTGTTVTVSS
VL: DIQMTQSPASLSASVGETVTITCRASGNIHNYLAWYQQRQGKSPQLLVYNAKTLPDGVPSRFSGSGSGTQYSLKINSLQPEDFGSYCCQHFWSTPLTFGAGTKLELK
[1]
  selectivity for ePHF over wild type tau: 100 fold
[2]
  EC50: 83 pM
iPHF
  Kd: 20000 pM
